{"source": "paper PMC11914300", "about": "“Immediate early splicing controls translation in activated T-cells and is mediated by hnRNPC2 phosphorylation”", "conditions_in_all_cases": "protein: recombinant; tags: N-terminal Twin-Strep-SUMO, removed with PreScission protease; chain copies: 4; label: 5' 32P", "key": {"hnRNPC2 WT [1]": {"target": "T1, hnRNPC2 WT (UniProt P07910 1-306)", "T1 sequence (P07910 whole entry)": "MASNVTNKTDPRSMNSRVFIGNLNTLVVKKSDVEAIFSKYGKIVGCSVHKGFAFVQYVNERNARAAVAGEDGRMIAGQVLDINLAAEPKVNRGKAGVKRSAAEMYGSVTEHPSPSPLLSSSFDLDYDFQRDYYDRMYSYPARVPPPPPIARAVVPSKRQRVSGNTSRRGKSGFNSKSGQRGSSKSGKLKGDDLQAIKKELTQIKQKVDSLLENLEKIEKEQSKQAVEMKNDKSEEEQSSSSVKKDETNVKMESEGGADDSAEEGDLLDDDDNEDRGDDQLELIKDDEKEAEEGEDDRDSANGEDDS", "test": "EMSA; 0-10 uM protein, 10 pmol RNA; EMSA: 20 mM Tris-HCl pH 8.0, 0.25 M NaCl, 1 mM DTT, 10% glycerol, 0.2 mM EDTA; 37 C, 20 min; 5% polyacrylamide gel"}, "hnRNPC2 S115D": {"target": "hnRNPC2 S115D (UniProt P07910 1-306, S115D)", "sequence (P07910 whole entry S115D)": "as the sequence (P07910 whole entry) above, with S115D counted along it", "test": "EMSA; 0-2000 nM protein, 10 pmol RNA; no difference from WT; EMSA: 20 mM Tris-HCl pH 8.0, 0.25 M NaCl, 1 mM DTT, 10% glycerol, 0.2 mM EDTA; 37 C, 20 min; 5% polyacrylamide gel"}, "hnRNPC2 WT [2]": {"target": "T1, hnRNPC2 WT", "test": "EMSA; 0-2000 nM protein, 10 pmol RNA; higher affinity than intron RNAs; EMSA: 20 mM Tris-HCl pH 8.0, 0.25 M NaCl, 1 mM DTT, 10% glycerol, 0.2 mM EDTA; 37 C, 20 min; 5% polyacrylamide gel"}}}
{"binder": "ACCCCCUGCACACUUACCCAAUCCUUUUAG (ssRNA)", "note": "[RPL10 intron 6 3' splice site RNA]", "values": [{"measurement": "binding result", "setting": "hnRNPC2 WT [1]", "value": "binds"}]}
{"binder": "UUUUUUUUUUUUUUUUUUUUUUUUUUUUUUUUUUUUUUUUUUUUU (ssRNA)", "note": "[poly-U 45 nt]", "values": [{"measurement": "binding result", "setting": "hnRNPC2 S115D", "value": "binds"}, {"measurement": "binding result", "setting": "hnRNPC2 WT [2]", "value": "binds"}]}
{"binder": "AUCUCUUGGCUAUCCCUCUUGCUUCUCCAG (ssRNA)", "note": "[eIF5A intron 5 3' splice site RNA]", "values": [{"measurement": "binding result", "setting": "hnRNPC2 WT [1]", "value": "binds"}]}
